The target of test [1] is ADCP1 Agenet 1/2 domain (amino acids 31-177) (Arabidopsis thaliana) (UniProt Q500V5). The experiment in a line: ITC; H3 peptides (usually 1 mM) titrated into ADCP1 tandem Agenet domains (0.05-0.1 mM); 25 °C; 100 mM NaCl, 20 mM Tris-HCl, pH 7.5; MicroCal PEAQ-ITC; 'One Set of Sites' fitting model.
Test [2] deals with ADCP1 Agenet 3/4 domain (amino acids 201-355) (Arabidopsis thaliana) (UniProt Q500V5). The test is described as above.
Test [3] has as its target ADCP1 (Agenet Domain Containing Protein 1) Agenet 1/2, 31-177 (UniProt Q500V5). Nature of the test: ITC. The note with it: reference: H3K9me2 peptide; sites S10.
Test [4] has as its target ADCP1 (Agenet Domain Containing Protein 1) Agenet 3/4, 201-355 (UniProt Q500V5). Nature of the test: ITC. The conditions noted are these: reference: H3K9me2 peptide; sites S10.
Test [5] has as its target ADCP1 (Agenet Domain Containing Protein 1) Agenet 5/6, 376-517 (UniProt Q500V5). The experiment in a line: ITC. The conditions noted are these: reference: H3K9me2 peptide; sites S10.
Test [6] concerns ADCP1-H3K9me3 NA. The experiment in a line: Aurora B treatment of phase-separated ADCP1-H3K9me3 NA. In kind it is biochemical. The conditions noted are these: kinase 5 µM, ATP 50 µM, 30 °C, 5 h. On the procedure: (§1) Aurora B kinase, ATP (NEB, P0756S) and 10 × kinase buffer (CST, 9802S) were added to the nucleosome array. The final concentration of kinase was 5 µM and ATP was 50 µM. The mixture was incubated at 30 °C for 5 h. The reaction product was detected by the ph-H3S10 antibody (Abcam, ab5176).
(§2) ADCP1 Agenet domain 1-4 (1-355 aa) and Agenet 3-6 (201–517 aa) proteins were stored in 20 mM HepesNa, pH 7.4, 150 mM NaCl. A 1:1 molar ratio of Alex 488 (Invitrogen, A10254, dissolved in DMSO) was added into ADCP1 and the mixture was incubated at room temperature for 1 h. The excess dye was removed using MicroSpin G-50 column (GE Healthcare, 27533001). DAPI was added to native/K9me3/K9me3S10A 12× nucleosome array to label the DNA. Protein and nucleosome array were diluted to a proper concentration. Equal volume of nucleosome array and ADCP1 were mixed in a 384 well glass bottom plate (Cellvis, P384-1.5H-N). For Fig. 6a, the concentrations of three proteins were 30 μM. […] The sample volume in each well was 5–10 μL. After 1 h incubation at room temperature, images were captured by Nikon A1RMP confocal microscope with 100 × oil objective. For FRAP analysis, mean fluorescence intensities from five regions of interests (ROIs) of time-lapse images were computed. ROI-1 was the bleached droplet, ROI-2 was a non-bleached droplet, ROI-3 was a background region. NIS-element software was used for data analysis.

Test [7] has as its system H3(S10A)K9me3 NA with ADCP1. The experiment in a line: Aurora B treatment of phase-separated ADCP1-H3(S10A)K9me3 NA. In kind it is biochemical. The conditions noted are these: kinase 5 µM, ATP 50 µM, 30 °C, 5 h. Here is the method:
as §1, §2

Test [8] concerns the target T1, ADCP1 Agenet 1/2 domain (amino acids 31-177) (Arabidopsis, UniProt Q500V5 31-177).
T1 chain: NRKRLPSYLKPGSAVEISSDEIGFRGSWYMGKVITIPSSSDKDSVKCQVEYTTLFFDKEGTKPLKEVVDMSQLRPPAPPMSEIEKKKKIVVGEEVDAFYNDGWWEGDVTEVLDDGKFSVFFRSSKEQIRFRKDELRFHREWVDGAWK
Nature of the test: ITC.

Sequence of ADCP1 Agenet 3/4 domain (amino acids 201-355) (Arabidopsis thaliana) (Q500V5 201-355): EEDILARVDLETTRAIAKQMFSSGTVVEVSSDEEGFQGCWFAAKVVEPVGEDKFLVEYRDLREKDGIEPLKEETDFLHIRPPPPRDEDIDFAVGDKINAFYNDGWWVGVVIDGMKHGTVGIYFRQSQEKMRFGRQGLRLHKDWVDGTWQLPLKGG

With H3(1-15)K4me3 peptide, in test [1], the Ka was 19000 M⁻¹ and the stoichiometry N stood at 1.12. In addition, in test [2], the Ka amounted to 24000 M⁻¹ and the stoichiometry N was 0.971.

In test [1], H3(1-15)K9me2 peptide gave a Ka of 333000 M⁻¹ and a stoichiometry N of 1.01.

As to H3(1-15)K9me2S10ph peptide, in test [2], the Ka was 10000 M⁻¹ and the stoichiometry N was determined as 1.

As to “histone H3 (synthetic H3 peptides) 1-15 (from UniProt P59226) H3K9me2S10ph peptide”, the “binding against the reference” value in test [3], in test [4] and in test [5] was “weaker” each time.

B1: Aurora B: human Aurora B kinase, causes S10 phosphorylation (protein, UniProt Q96GD4 1-344, looked up)
Aurora kinase B: MAQKENSYPWPYGRQTAPSGLSTLPQRVLRKEPVTPSALVLMSRSNVQPTAAPGQKVMENSSGTPDILTRHFTIDDFEIGRPLGKGKFGNVYLAREKKSHFIVALKVLFKSQIEKEGVEHQLRREIEIQAHLHHPNILRLYNYFYDRRRIYLILEYAPRGELYKELQKSCTFDEQRTATIMEELADALMYCHGKKVIHRDIKPENLLLGLKGELKIADFGWSVHAPSLRRKTMCGTLDYLPPEMIEGRMHNEKVDLWCIGVLCYELLVGNPPFESASHNETYRRIVKVDLKFPASVPMGAQDLISKLLRHNPSERLPLAQVSAHPWVRANSRRVLPPSALQSVA
Consider B1, for which the “dissolution of phase transition by Aurora B, H3K9me3 NA” value in test [6] is given as “phase transition of the former but not the latter can be dissolved by Aurora B treatment”. Besides, in test [7], the “dissolution of phase transition by Aurora B, H3(S10A)K9me3 NA” value was “not the latter can be dissolved by Aurora B treatment”.

B2: H3K9me3S10ph (peptide)
chain: ARTKQTARKSTGGKA
modifications: trimethyl-Lys9, phospho-Ser10 (mature H3 numbering; precursor 10 and 11). Taken as the ITC peptide of Fig. 1e with limits 1-15 from the paper's other H3K9me peptides; the text uses the same name for the Aurora B-treated MLA nucleosome array, which is a different molecule
As to B2, in test [8], the affinity, expressed as Kd, was 42.5 µM.

(Values after article PMC6318295, “Plant HP1 protein ADCP1 links multivalent H3K9 methylation readout to heterochromatin formation” (Cell Research, 2018).)
